Measured values from US12454572B2, “Methods of treating anemia in myelodysplastic syndromes” (Dana-Farber Cancer Institute, Inc., priority 2021, dated 2025).
Entries after “also recorded” stand apart in the source; their conditions may differ. Like-named read-outs stand apart in the source and are kept apart here.

Assays:
MDS patients = settings: cited from earlier work
Lin- BM cells = test: in vitro erythropoiesis assay (erythroid differentiation of Lin- BM cells); format: cell-based, mouse; settings: for p53 expression: culture treated with rIL-22 vs PBS
Procedure: Whole BM cells were labeled with biotin-conjugated lineage antibodies (cocktail of anti-CD3ε, anti-CD11b, anti-CD45R/B220, anti-Gr1, anti-CD5, and anti-TER-119) (BD Pharmingen) and purified using anti-biotin beads and negative selection on the AutoMACS Pro (Miltenyi). Purified cells were then seeded in fibronectin-coated (2 μg/cm^2) tissue-culture treated polystyrene wells (CORNING® BIOCOAT™ Cellware) at a cell density of 10^5/mL. Erythroid differentiation was carried out according to modified published protocols. The erythropoietic medium was IMDM supplemented with erythropoietin at 10 U/mL, 10 ng/mL stem cell factor SCF, PeproTech), 10 μM Dexamethasone (Sigma-Aldrich), 15% FBS, 1% detoxified BSA (StemCell Technologies), 200 μg/mL holotransferrin (Sigma-Aldrich), […] human insulin (Sigma-Aldrich), 2 mM L-glutamine, 0.1 mM β-mercaptoethanol, and penicillin-streptomycin. After 48 h, the medium was replaced by IMDM medium containing 20% FBS, 2 mM L-glutamine, 0.1 mM β-mercaptoethanol, and penicillin-streptomycin. 50% of the culture media was replaced after 48 h and cell density was maintained at 0.5×10^6/mL. Total culture period for the assay was 6 days. Recombinant mouse IL-22 (PeproTech/Cell Signaling) was used where indicated.

wild-type TH22 cells = test: secreted IL-22 from in vitro polarized wild-type TH22 cells; format: cell-based, mouse; settings: for secreted IL-22: pifithrin-α, p-nitro 1 μM, Nutlin-3 100 nM
Procedure: Single-cell suspensions of mouse spleens were prepared by pressing tissue through a 70-μm cell strainer followed by red blood cell lysis using PharmLyse. Total splenic CD4^+ T cells were isolated using CD4 T cell isolation kit (Miltenyi Biotec). Enriched CD4^+ T cells were then incubated with fluorochrome-conjugated antibodies to CD4, CD8, CD25, CD62L, and CD44 to purify naïve CD4^+ T cells using fluorescence activated cell sorting (FACS). In the presence of 1 μg/mL plate-bound anti-CD3ε and soluble 1 μg/mL anti-CD28, T cell polarizations were carried out in IMDM supplemented with 10% FBS, 2 mM L-glutamine, […] penicillin-streptomycin, HEPES (pH 7.2-7.6), non-essential amino acids, 100 μM β-mercaptoethanol (BME), and sodium pyruvate as follows—TH1 (20 ng/mL IL-12, 10 μg/mL anti-IL-4), TH2 (20 ng/mL IL-4, 10 μg/mL anti-IFN-γ), TH17 (30 ng/mL IL-6, 20 ng/mL IL-23, 20 ng/mL IL-1β, 10 μg/mL anti-IL-4, 10 μg/mL anti-IFN-γ), Treg cells (1 ng/mL TGF-β, 10 μg/mL anti-IL-4, 10 μg/mL anti-IFN-γ), and TH22 (30 ng/mL IL-6, 20 ng/mL IL-23, 20 ng/mL IL-1β, 10 μg/mL anti-IL-4, 10 μg/mL anti-IFN-γ, 400 nM FICZ). Pifithrin-α, p-Nitro and Nutlin-3a were purchased from Santa Cruz Biotechnology and Tocris Biosciences, respectively.
IL-22 in human samples was quantified using either Human IL-22 Quantikine ELISA Kit (D2200, R&D Systems) or SMCTM Human IL-22 High Sensitivity Immunoassay Kit (EMD Millipore, 03-0162-00) according to manufacturers' instructions. The SMC assay was read on a SMC Pro (EMD Millipore) instrument. The lower limit of quantification (LLOQ) of this immunoassay is 0.1 pg/mL. IL-22 in mouse samples was quantified using ELISA MAX™ Deluxe Set Mouse IL-22 (BioLegend, 436304). The LLOQ of this immunoassay is 3.9 pg/mL. S100A8 in human samples was quantified using Human S100A8 DuoSet ELISA (DY4570, R&D Systems).

human CD34+ stem cells = settings: cited from earlier work
IL-22 [1] = target: T1, IL-22 (Mus musculus, UniProt Q9JJY9); settings: cited from earlier work
T1 sequence (Q9JJY9 34-179): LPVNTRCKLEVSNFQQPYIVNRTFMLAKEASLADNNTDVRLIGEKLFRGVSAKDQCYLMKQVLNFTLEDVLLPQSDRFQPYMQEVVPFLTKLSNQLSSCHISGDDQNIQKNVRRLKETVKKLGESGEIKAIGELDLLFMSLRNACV

IL-22 [2] = target: T1, IL-22; test: IL-22 neutralization with anti-IL-22 antibody in mice undergoing PhZ-induced stress erythropoiesis; format: in vivo; set-up: endogenous in cells; host or cells: living mice (wt C57BL/6J; Riok2f/+Vav1cre and Riok2+/+Vav1cre); settings: for frequency of apoptotic erythroid progenitors/precursors: viable BM cells
Procedure: (§1) Phenylhydrazine (PhZ) was purchased from Sigma and injected intraperitoneally on 2 consecutive days (days 0 and 1) at a dose of 25 mg/kg. Peripheral blood was collected 3-4 days before the start of treatment and at day 4, 7 and 11. PhZ treatment experiments were carried out in 8-16 week-old mice.
(§2) Monoclonal anti-IL-22 (Clone IL22JOP) blocking antibody and isotype control IgG2a (Clone eBR2a) were purchased from Thermo Fisher Scientific. Mice were administered anti-IL-22 (50 μg/mouse) or isotype intraperitoneally every 48 h until the conclusion of the experiment. For recombinant IL-22 treatment, mice were injected with recombinant IL-22 (500 ng/mouse; PeproTech) intraperitoneally every 24 h until the conclusion of the experiment.
(§3) Mice were bled via the submandibular facial vein to collect blood in EDTA-coated tubes (BD MICROTAINER™ Capillary Blood Collector, BD 365974). Complete blood counts were obtained using the HemaVet CBC Analyzer (Drew Scientific) or Advia 120 (Siemens Inc.,) instruments.
as §1, with “at the” for “at a”, “25 mg/kg (sublethal model) or 35 mg/kg (lethal model).” for “25 mg/kg.”, “4, 7,” for “4, 7”, “in 8-12 week old” for “in 8-16 week-old”
(§4) Monoclonal anti-IL-22 (Clone IL22JOP) blocking antibody and isotype control IgG2aκ (Clone eBR2a) were purchased from Thermo Fisher Scientific. Mice were administered anti-IL-22 (50 μg/mouse) or isotype intraperitoneally every 48 h until the conclusion of the experiment. For recombinant IL-22 treatment, mice were injected with recombinant IL-22 (500 ng/mouse; PeproTech) intraperitoneally every 24 h until the conclusion of the experiment. Mice were administered these reagents at least five times before inducing PhZ-mediated anemia.

IL-22 [3] = target: T1, IL-22; test: anti-IL-22 antibody in naive, non-anemic wt C57BL/6J mice; format: in vivo; set-up: endogenous in cells; host or cells: living mice (wt C57BL/6J; Riok2f/+Vav1cre and Riok2+/+Vav1cre); settings: healthy, anti-IL-22 vs isotype
Procedure: as §2, §3, §4

wild-type C57BL/6J mice = test: recombinant IL-22 administration to wt C57BL/6J mice subsequently treated with PhZ; format: in vivo, mouse; settings: for apoptosis of erythroid progenitors/precursors: in vivo
Procedure: as §1, §2, §3
as §1, with “at the” for “at a”, “25 mg/kg (sublethal model) or 35 mg/kg (lethal model).” for “25 mg/kg.”, “4, 7,” for “4, 7”, “in 8-12 week old” for “in 8-16 week-old”
as §4

Il22ra1f/fEporcre mice = test: recombinant IL-22 administration to Il22ra1f/fEporcre mice subsequently treated with PhZ; format: in vivo, mouse; settings: mice lacking the IL-22 receptor only on erythroid cells
Procedure: as §1, with “at the” for “at a”, “25 mg/kg (sublethal model) or 35 mg/kg (lethal model).” for “25 mg/kg.”, “4, 7,” for “4, 7”, “in 8-12 week old” for “in 8-16 week-old”
as §4

[4] = Riok2 sufficient (Riok2+/+Vav1cre) mice, PhZ-induced anemia, vs isotype
[5] = wt C57BL/6J mice undergoing PhZ-induced anemia, vs isotype

For `Nc1cccc2c1CN(C1CCC(=O)NC1=O)C2=O` (centres unmarked) [lenalidomide], the extension of survival (MDS patients; HR-MDS group) is listed as 4-6 months and the extension of survival (MDS patients; LR-MDS patients) is listed as 14-17 months.

For `N=c1sc2c(n1CC(=O)c1ccc([N+](=O)[O-])cc1)CCCC2` [pifithrin-α, p-nitro], the “apoptosis induced by Riok2 haploinsufficiency” value (Lin- BM cells; IL-22-free assay, pifithrin-α, p-nitro 1 μM, Lin- BM cells from Riok2f/+Vav1cre mice) was “inhibited”, the “secreted IL-22” value (wild-type TH22 cells) was “decreased” and the cell viability (wild-type TH22 cells; viable cells by flow cytometry) was “did not decrease”.

In the case of `CC(C)n1cnc2c(NCCc3ccc(O)cc3)nc(-c3csc4ccccc34)nc21` [Stemregenin 1], the “increase in erythroid colonies” value (human CD34+ stem cells; SR1-pretreated CD34+ cells vs untreated cells) is listed as 129 fold, the “pluripotency of human CD34+ stem cells” value (human CD34+ stem cells) is listed as “maintain” and the “ex vivo expansion of human HSCs” value (human CD34+ stem cells; highest fold expansion seen in the erythroid lineage) is listed as “promote”.

For “anti-IL-22 (Clone IL22JOP): Monoclonal anti-IL-22 blocking antibody purchased from Thermo Fisher Scientific; used in Examples 2-16”, the “neutralization of IL-22” value (IL-22 [1]) is listed as “effectively neutralize”, the “PB RBCs” value (IL-22 [2]; Riok2f/+Vav1cre mice, PhZ-induced anemia, anti-IL-22 50 μg/mouse i.p. every 48 h vs isotype) is listed as “anti-anemic effect; also recorded: increase” and the HCT (IL-22 [2]; Riok2f/+Vav1cre mice, PhZ-induced anemia, vs isotype) is listed as “anti-anemic effect; also recorded: increase”. The “frequency of apoptotic erythroid progenitors/precursors” value (IL-22 [2]; Riok2f/+Vav1cre mice, PhZ) was “reduced”, the anemia (IL-22 [2]; Riok2 haploinsufficient (Riok2f/+Vav1cre) mice, vs isotype) was “partially reversed; also recorded: alleviated” and the phenylhydrazine-induced anemia (IL-22 [2]; Riok2 sufficient (Riok2+/+Vav1cre) mice) was “reversed”. For the same molecule, the HCT (IL-22 [2]; [4]) was “anti-anemic effect; also recorded: increase”, the “PB RBCs” value (IL-22 [2]; [4]) was “anti-anemic effect; also recorded: increase” and the “frequency of apoptotic erythroid progenitors/precursors” value (IL-22 [2]; Riok2 sufficient mice, PhZ) was “reduced”. For the same molecule, the anemia (IL-22 [2]; wild-type mice undergoing PhZ-induced stress erythropoiesis) was “alleviated”, the HCT (IL-22 [2]; [5]) was “significantly increased” and the Hb (IL-22 [2]; [5]) was “significantly increased”. The “PB RBCs” value (IL-22 [2]; [5]) was “increases; also recorded: significantly increased; also recorded: faster”, the “frequency of RIII and RIV erythroid precursors in the BM” value (IL-22 [2]; wt C57BL/6J mice, PhZ, vs isotype) was “increased” and the HCT (IL-22 [3]) was “did not differ”. For the same molecule, the Hb (IL-22 [3]) was “did not differ” and the “PB RBCs” value (IL-22 [3]) was “did not differ”.

For `COc1ccc(C2=N[C@@H](c3ccc(Cl)cc3)[C@@H](c3ccc(Cl)cc3)N2C(=O)N2CCNC(=O)C2)c(OC(C)C)c1` [nutlin-3], the cell viability (wild-type TH22 cells) was “did not decrease” and the “secreted IL-22” value (wild-type TH22 cells) was “increased”.

For etanercept, the “efficacy in MDS patients” value (MDS patients; human, in vivo) is given as “ineffective”.

B1: rIL-22: recombinant IL-22 (PeproTech / Cell Signaling) (protein, UniProt Q9JJY9 34-179, looked up)
Interleukin-22: LPVNTRCKLEVSNFQQPYIVNRTFMLAKEASLADNNTDVRLIGEKLFRGVSAKDQCYLMKQVLNFTLEDVLLPQSDRFQPYMQEVVPFLTKLSNQLSSCHISGDDQNIQKNVRRLKETVKKLGESGEIKAIGELDLLFMSLRNACV
With B1 the “BM erythroid progenitor/precursor cells (frequency and number)” value (wild-type C57BL/6J mice; 7 days after PhZ, vs PBS) was “decreased”, the “PB RBCs” value (wild-type C57BL/6J mice; rIL-22 500 ng/mouse i.p. every 24 h, then PhZ, vs PBS) was “decreased” and the BM reticulocytes (wild-type C57BL/6J mice; rIL-22 i.p., PhZ) was “increase”. The PB reticulocytes (wild-type C57BL/6J mice; rIL-22 i.p., PhZ) was “increase”, the “apoptosis of erythroid progenitors/precursors” value (wild-type C57BL/6J mice; rIL-22 i.p., PhZ) was “increased; also recorded: induced” and the “apoptosis of erythroid progenitors/precursors” value (wild-type C57BL/6J mice; rIL-22 i.p., PhZ, listed as recombinant IL-22) was “increase”. The HCT (wild-type C57BL/6J mice; rIL-22 i.p., then PhZ, vs PBS) was “decreased”, the Hb (wild-type C57BL/6J mice; rIL-22 i.p., then PhZ, vs PBS) was “decreased” and the “PhZ-induced (stress-induced) anemia” value (wild-type C57BL/6J mice; wt mice) was “exacerbates”. For the same molecule, the phenylhydrazine-induced anemia (Il22ra1f/fEporcre mice) was “failed to exacerbate”, the p53 expression (Lin- BM cells) was “upregulation” and the p53 expression (Lin- BM cells; listed as recombinant IL-22) was “induction”. For the same molecule, the terminal erythropoiesis (Lin- BM cells; recombinant IL-22, dose response) was “dose-dependently decreased”.
